Results on one substance are retold here after US6379928.

What all share (test): cell-based or functional assay
Experiment [1] has as its target chymosin polypeptide secreted by fungi transformed with pGRG1 (A. niger glucoamylase signal peptide fused to bovine prochymosin) (bovine) (UniProt P00794).
The target of experiment [2] is chymosin polypeptide secreted by fungi transformed with pGRG2 (A. niger glucoamylase signal peptide and propeptide fused to bovine prochymosin) (bovine) (UniProt P00794).
Experiment [3] deals with chymosin polypeptide secreted by fungi transformed with pGRG3 (bovine preprochymosin under the glucoamylase promoter) (bovine) (UniProt P00794).

The substance pepstatin (peptide) had a Chymosin Activity (µg/ml) of pGRG1 broth after preincubation with pepstatin (0.2 without pepstatin) in experiment [1] of 0.05 µg/ml. For the same substance, the Chymosin Activity (µg/ml) of pGRG2 broth after preincubation with pepstatin (0.1 without pepstatin) in experiment [2] is 0 µg/ml. This substance also showed a Chymosin Activity (µg/ml) of pGRG3 broth after preincubation with pepstatin (3 without pepstatin) in experiment [3] of 0.6 µg/ml.
